Experimental data: IntAct's records for PubMed 21157427

B1: Serine/arginine-rich splicing factor 2 (Homo sapiens), Q01130 (parent)
chain: MSYGRPPPDVEGMTSLKVDNLTYRTSPDTLRRVFEKYGRVGDVYIPRDRYTKESRGFAFVRFHDKRDAEDAMDAMDGAVLDGRELRVQMARYGRPPDSHHSRRGPPPRRYGGGGYGRRSRSPRRRRRSRSRSRSRSRSRSRSRYSRSKSRSRTRSRSRSTSKSRSARRSKSKSSSVSRSRSRSRSRSRSRSPPPVSKRESKSRSRSKSPPKSPEEEGAVSS

Variants of: B1
Settings: with kat5_human KAT5, Q92993
Chain of kat5_human KAT5, Q92993 (Q92993 whole entry, looked up): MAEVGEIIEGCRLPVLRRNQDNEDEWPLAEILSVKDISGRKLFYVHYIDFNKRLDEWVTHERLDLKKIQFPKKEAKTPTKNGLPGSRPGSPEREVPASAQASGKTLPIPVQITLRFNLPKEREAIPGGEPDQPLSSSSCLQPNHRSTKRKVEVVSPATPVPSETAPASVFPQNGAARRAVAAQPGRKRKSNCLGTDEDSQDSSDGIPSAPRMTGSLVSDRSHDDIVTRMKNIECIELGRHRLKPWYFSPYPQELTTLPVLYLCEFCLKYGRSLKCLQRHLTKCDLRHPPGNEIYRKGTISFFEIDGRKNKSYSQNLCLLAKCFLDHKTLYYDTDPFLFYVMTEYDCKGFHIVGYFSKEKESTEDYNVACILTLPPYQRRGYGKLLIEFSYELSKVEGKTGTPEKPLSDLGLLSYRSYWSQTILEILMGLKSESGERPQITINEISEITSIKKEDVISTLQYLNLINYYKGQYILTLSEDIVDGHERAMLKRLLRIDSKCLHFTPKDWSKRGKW

Q: Which “effect of a mutation on the interaction” value does the source give for MSYGRPPPDVEGMTSLKVDNLTYRTSPDTLRRVFEKYGRVGDVYIPRDRYTRESRGFAFVRFHDKRDAEDAMDAMDGAVLDGRELRVQMARYGRPPDSHHSRRGPPPRRYGGGGYGRRSRSPRRRRRSRSRSRSRSRSRSRSRYSRSKSRSRTRSRSRSTSKSRSARRSKSKSSSVSRSRSRSRSRSRSRSPPPVSKRESKSRSRSKSPPKSPEEEGAVSS [K52R] here?
A: disrupting interaction
